Substitutions are numbered along the chain they refer to. Blank lines part the entries; values can stand above or below the binder they belong to.
What was measured:
human C1s [1] = molecular target: T1, human C1s (human, UniProt P09871 16-688); test: SPR; KD pH 5.8 3 uM Ca / KD pH 7.4 1.2 mM Ca
T1 construct: also called hC1s; serum-derived human C1s (CompTech)
T1 sequence: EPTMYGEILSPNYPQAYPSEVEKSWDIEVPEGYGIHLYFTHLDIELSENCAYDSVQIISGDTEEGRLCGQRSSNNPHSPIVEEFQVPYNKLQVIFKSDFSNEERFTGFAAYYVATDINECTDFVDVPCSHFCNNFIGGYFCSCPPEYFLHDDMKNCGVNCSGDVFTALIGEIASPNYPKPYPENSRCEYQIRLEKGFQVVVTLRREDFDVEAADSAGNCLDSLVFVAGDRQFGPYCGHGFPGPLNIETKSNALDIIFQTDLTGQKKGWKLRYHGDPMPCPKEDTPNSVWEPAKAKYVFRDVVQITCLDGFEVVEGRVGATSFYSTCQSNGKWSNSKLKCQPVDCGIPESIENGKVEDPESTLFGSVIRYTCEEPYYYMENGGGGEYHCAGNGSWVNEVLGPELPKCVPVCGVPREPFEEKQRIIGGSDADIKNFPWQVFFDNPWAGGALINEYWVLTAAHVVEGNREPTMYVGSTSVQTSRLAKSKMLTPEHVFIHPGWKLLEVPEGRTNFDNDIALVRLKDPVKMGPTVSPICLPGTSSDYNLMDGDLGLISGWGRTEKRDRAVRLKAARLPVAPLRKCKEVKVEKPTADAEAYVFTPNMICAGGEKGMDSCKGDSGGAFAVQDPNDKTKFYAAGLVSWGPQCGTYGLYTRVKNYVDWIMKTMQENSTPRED
Protocol: (§1) All variants were transiently expressed and purified by the method described above. The binding affinity of each histidine-substituted variant at pH 7.4 and pH 5.8 was determined at 37 degrees C. using Biacore T200 instrument (GE Healthcare). Recombinant Protein A/G (Pierce) was immobilized onto all flow cells of a CM4 sensor chip using an amine coupling kit (GE Healthcare). Antibodies and analytes were prepared in 7(+) buffer (20 mM ACES, 150 mM NaCl, 1.2 mM CaCl2, 0.05% Tween 20, 0.005% NaN3, pH 7.4), 5(+) buffer (20 mM ACES, 150 mM NaCl, 1.2 mM CaCl2, 0.05% Tween 20, 0.005% NaN3, pH 5.8), or 5(−) buffer (20 mM ACES, 150 mM NaCl, 3 micro M CaCl2, 0.05% Tween 20, 0.005% NaN3, pH 5.8). Each antibody was captured onto the sensor surface by protein A/G. Antibody capture levels were aimed at 200 resonance unit (RU). Serum-derived human C1s (CompTech) or recombinant C1s prepared in EXAMPLE 1 was injected at 50 nM, followed by dissociation. The sensor surface was regenerated in each cycle with 10 mM Glycine-HCl, pH 1.5. […] The ratio of KD 5.8+ to KD 7.4+(“KD 5+/7+”) and that of KD 5.8− to KD 7.4+(“KD 5−/7+”) were calculated. When the KD 5+/7+ or KD 5−/7+ of a variant is larger than that of the parent antibody IPN009VH2-SG4GK/IPN009VK3-SK1, that variant is considered to be “pH”- or “pH and Ca”-dependent, respectively. When binding response in 5(+) buffer and/or in 5(−) buffer of a variant is much lower than that of IPN09VH2/IPN009VK3, that variant is also considered as “pH”- and/or “pH and Ca”-dependent. Therefore, such mutations are effective to generate “pH”- and/or “pH and Ca”-dependent antibody. To further enhance “pH” and/or “pH and Ca” dependency, a combination of histidine mutations was conducted. Antibodies with combinations of histidine mutations were evaluated using Biacore by the method described above.

human C1s [2] = molecular target: T1, human C1s; test: SPR, Ab captured; pH 5.8, 1.2 mM Ca
Protocol: as §1

human C1s [3] = molecular target: T1, human C1s; test: SPR, Ab captured; pH 5.8, 3 uM Ca
Protocol: as §1

human C1s [4] = molecular target: T1, human C1s; test: SPR, Ab captured; pH 7.4, 1.2 mM Ca
Protocol: as §1

human C1s [5] = molecular target: T1, human C1s; test: SPR; KD pH 5.8 1.2 mM Ca / KD pH 7.4 1.2 mM Ca
Protocol: as §1

KD 5(-)/7(+) (human C1s [1]): 106 | Kd (human C1s [2]): 89.3 nM | koff (human C1s [2]): 0.0449 s⁻¹ | kon (human C1s [2]): 503000 M⁻¹ s⁻¹ | Kd (human C1s [3]): 2560 nM | koff (human C1s [3]): 0.0603 s⁻¹ | kon (human C1s [3]): 23500 M⁻¹ s⁻¹ | Kd (human C1s [4]): 24.2 nM | koff (human C1s [4]): 0.0146 s⁻¹ | kon (human C1s [4]): 603000 M⁻¹ s⁻¹ | KD 5(+)/7(+) (human C1s [5]): 3.7
B1: C1_IPN92H0033-SG4GK/IPN93L0030-SK1 (antibody, human IgG4 S228P, kappa, name in Kabat numbering, V domains shown)
VH: EVMLVESGGGLVKPGGSLRLSCAASGFTFSNYAMSWVRQAPGKGLEWVATISSGGSHTYYLDSVKGRFTISRDNSKDTLYLQMNSLRAEDTALYYCARLFTGHAMDYWGQGTLVTVSS
VL: QIVLTQSPATLSLSPGERATLSCTASSSVSSSYLHWYQQKPGKAPKLWIYSTSNLASGVPSRFSGSGSGTDYTLTISSLQPEDFATYYCHQYYRHHPITFGQGTKLEIKR
notes: also called IPN92H0033/IPN93L0030

KD 5(-)/7(+) (human C1s [1]): 10.6 | Kd (human C1s [2]): 3.53 nM | koff (human C1s [2]): 0.00224 s⁻¹ | kon (human C1s [2]): 634000 M⁻¹ s⁻¹ | Kd (human C1s [3]): 10.2 nM | Kd (human C1s [4]): 0.958 nM | koff (human C1s [4]): 0.000477 s⁻¹ | kon (human C1s [4]): 498000 M⁻¹ s⁻¹ | KD 5(+)/7(+) (human C1s [5]): 3.7
B2: C1_IPN92H0038-SG4GK/IPN93L0021-SK1 (antibody, human IgG4 S228P, kappa, name in Kabat numbering, V domains shown)
VH: B1 VH with G66H
VL: B1 VL with Y93H, H95L, H96P
notes: also called IPN92H0038/IPN93L0021

KD 5(-)/7(+) (human C1s [1]): 0.7 | Kd (human C1s [2]): 1.24 nM | koff (human C1s [2]): 0.00146 s⁻¹ | kon (human C1s [2]): 1.18e+06 M⁻¹ s⁻¹ | Kd (human C1s [3]): 3.9 nM | koff (human C1s [3]): 0.00476 s⁻¹ | kon (human C1s [3]): 1.22e+06 M⁻¹ s⁻¹ | Kd (human C1s [4]): 5.22 nM | koff (human C1s [4]): 0.0396 s⁻¹ | kon (human C1s [4]): 7.59e+06 M⁻¹ s⁻¹ | KD 5(+)/7(+) (human C1s [5]): 0.2
B3: C1_IPN92H0038-SG4GK/IPN93L0031-SK1 (antibody, human IgG4 S228P, kappa, name in Kabat numbering, V domains shown)
VH: B1 VH with G66H
VL: B1 VL with Y93H
notes: also called IPN92H0038/IPN93L0031

KD 5(-)/7(+) (human C1s [1]): 3.9 | koff (human C1s [2]): 0.00209 s⁻¹ | kon (human C1s [2]): 807000 M⁻¹ s⁻¹ | koff (human C1s [3]): 0.00934 s⁻¹ | kon (human C1s [3]): 674000 M⁻¹ s⁻¹ | koff (human C1s [4]): 0.00187 s⁻¹ | kon (human C1s [4]): 522000 M⁻¹ s⁻¹ | KD 5(+)/7(+) (human C1s [5]): 0.7
B4: C1_IPN92H0033-SG4GK/IPN93L0031-SK1 (antibody, human IgG4 S228P, kappa, name in Kabat numbering, V domains shown)
VH: B1 VH
VL: B1 VL with Y93H
notes: also called IPN92H0033/IPN93L0031

KD 5(-)/7(+) (human C1s [1]): 11.6 | Kd (human C1s [2]): 17.7 nM | koff (human C1s [2]): 0.00789 s⁻¹ | kon (human C1s [2]): 445000 M⁻¹ s⁻¹ | Kd (human C1s [3]): 27.3 nM | koff (human C1s [3]): 0.0174 s⁻¹ | kon (human C1s [3]): 637000 M⁻¹ s⁻¹ | Kd (human C1s [4]): 2.36 nM | koff (human C1s [4]): 0.00125 s⁻¹ | kon (human C1s [4]): 528000 M⁻¹ s⁻¹ | KD 5(+)/7(+) (human C1s [5]): 7.5
B5: C1_IPN92H0038-SG4GK/IPN93L0028-SK1 (antibody, human IgG4 S228P, kappa, name in Kabat numbering, V domains shown)
VH: B1 VH with G66H
VL: B1 VL with Y93H, H96P
notes: also called IPN92H0038/IPN93L0028

KD 5(-)/7(+) (human C1s [1]): 0.9 | Kd (human C1s [2]): 24.2 nM | koff (human C1s [2]): 0.0131 s⁻¹ | kon (human C1s [2]): 539000 M⁻¹ s⁻¹ | Kd (human C1s [3]): 6.62 nM | koff (human C1s [3]): 0.00522 s⁻¹ | kon (human C1s [3]): 789000 M⁻¹ s⁻¹ | Kd (human C1s [4]): 7.15 nM | koff (human C1s [4]): 0.003 s⁻¹ | kon (human C1s [4]): 419000 M⁻¹ s⁻¹ | KD 5(+)/7(+) (human C1s [5]): 3.4
B6: C1_IPN92H0038-SG4GK/IPN93L0029-SK1 (antibody, human IgG4 S228P, kappa, name in Kabat numbering, V domains shown)
VH: B1 VH with G66H
VL: B1 VL with Y93H, H95L
notes: also called IPN92H0038/IPN93L0029

KD 5(-)/7(+) (human C1s [1]): 12.3 | Kd (human C1s [2]): 0.668 nM | koff (human C1s [2]): 0.000463 s⁻¹ | kon (human C1s [2]): 693000 M⁻¹ s⁻¹ | Kd (human C1s [3]): 8.33 nM | koff (human C1s [3]): 0.00538 s⁻¹ | kon (human C1s [3]): 646000 M⁻¹ s⁻¹ | Kd (human C1s [4]): 0.679 nM | koff (human C1s [4]): 0.000282 s⁻¹ | kon (human C1s [4]): 415000 M⁻¹ s⁻¹ | KD 5(+)/7(+) (human C1s [5]): 1
B7: C1_IPN92H0038-SG4GK/IPN009VK3-SK1 (antibody, human IgG4 S228P, kappa, name in Kabat numbering, V domains shown)
VH: B1 VH with G66H
VL: B1 VL with H95L, H96P
notes: also called IPN92H0038/IPN009VK3

KD 5(-)/7(+) (human C1s [1]): 6.3 | Kd (human C1s [2]): 5.33 nM | koff (human C1s [2]): 0.00279 s⁻¹ | kon (human C1s [2]): 524000 M⁻¹ s⁻¹ | Kd (human C1s [3]): 12.1 nM | Kd (human C1s [4]): 1.91 nM | koff (human C1s [4]): 0.000808 s⁻¹ | kon (human C1s [4]): 422000 M⁻¹ s⁻¹ | KD 5(+)/7(+) (human C1s [5]): 2.8
B8: C1_IPN92H0038-SG4GK/IPN93L0023-SK1 (antibody, human IgG4 S228P, kappa, name in Kabat numbering, V domains shown)
VH: B1 VH with G66H
VL: B1 VL with H96P
notes: also called IPN92H0038/IPN93L0023

KD 5(-)/7(+) (human C1s [1]): 30.1 | Kd (human C1s [2]): 70.3 nM | koff (human C1s [2]): 0.017 s⁻¹ | kon (human C1s [2]): 241000 M⁻¹ s⁻¹ | Kd (human C1s [3]): 599 nM | koff (human C1s [3]): 0.00538 s⁻¹ | kon (human C1s [3]): 8980 M⁻¹ s⁻¹ | Kd (human C1s [4]): 19.9 nM | koff (human C1s [4]): 0.0111 s⁻¹ | kon (human C1s [4]): 558000 M⁻¹ s⁻¹ | KD 5(+)/7(+) (human C1s [5]): 3.5
B9: C1_IPN92H0038-SG4GK/IPN93L0030-SK1 (antibody, human IgG4 S228P, kappa, name in Kabat numbering, V domains shown)
VH: B1 VH with G66H
VL: B1 VL
notes: also called IPN92H0038/IPN93L0030

KD 5(-)/7(+) (human C1s [1]): 1.1 | Kd (human C1s [2]): 12.1 nM | koff (human C1s [2]): 0.00637 s⁻¹ | kon (human C1s [2]): 528000 M⁻¹ s⁻¹ | Kd (human C1s [3]): 3.36 nM | Kd (human C1s [4]): 3.14 nM | koff (human C1s [4]): 0.00082 s⁻¹ | kon (human C1s [4]): 261000 M⁻¹ s⁻¹ | KD 5(+)/7(+) (human C1s [5]): 3.9
B10: C1_IPN92H0048-SG4GK/IPN93L0024-SK1 (antibody, human IgG4 S228P, kappa, name in Kabat numbering, V domains shown)
VH: B1 VH with F27H
VL: B1 VL with H95L
notes: also called IPN92H0048/IPN93L0024

KD 5(-)/7(+) (human C1s [1]): 3.5 | Kd (human C1s [2]): 8.19 nM | koff (human C1s [2]): 0.00418 s⁻¹ | kon (human C1s [2]): 511000 M⁻¹ s⁻¹ | Kd (human C1s [3]): 5.47 nM | Kd (human C1s [4]): 1.57 nM | koff (human C1s [4]): 0.000596 s⁻¹ | kon (human C1s [4]): 380000 M⁻¹ s⁻¹ | KD 5(+)/7(+) (human C1s [5]): 5.2
B11: C1_IPN92H0038-SG4GK/IPN93L0024-SK1 (antibody, human IgG4 S228P, kappa, name in Kabat numbering)
heavy: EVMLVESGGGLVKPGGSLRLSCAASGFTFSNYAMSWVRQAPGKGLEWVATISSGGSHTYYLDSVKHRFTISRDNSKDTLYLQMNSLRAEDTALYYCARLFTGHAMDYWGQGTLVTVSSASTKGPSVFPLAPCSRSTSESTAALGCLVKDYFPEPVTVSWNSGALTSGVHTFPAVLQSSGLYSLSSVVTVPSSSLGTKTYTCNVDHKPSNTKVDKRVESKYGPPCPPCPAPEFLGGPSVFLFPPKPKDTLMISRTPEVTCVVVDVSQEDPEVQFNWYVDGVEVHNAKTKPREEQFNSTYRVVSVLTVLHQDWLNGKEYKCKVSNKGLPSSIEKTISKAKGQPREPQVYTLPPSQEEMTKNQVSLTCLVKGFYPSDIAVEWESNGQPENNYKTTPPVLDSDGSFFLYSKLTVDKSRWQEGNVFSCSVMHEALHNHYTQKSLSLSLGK
light: QIVLTQSPATLSLSPGERATLSCTASSSVSSSYLHWYQQKPGKAPKLWIYSTSNLASGVPSRFSGSGSGTDYTLTISSLQPEDFATYYCHQYYRLHPITFGQGTKLEIKRTVAAPSVFIFPPSDEQLKSGTASVVCLLNNFYPREAKVQWKVDNALQSGNSQESVTEQDSKDSTYSLSSTLTLSKADYEKHKVYACEVTHQGLSSPVTKSFNRGEC
notes: also called IPN92H0038/IPN93L0024
